Assay results reported in patent CN110872351A.

Molecular target: GPC3蛋白 (glypican-3 protein expressed in eukaryotic HEK293 cells) (UniProt P51654)
Test: sandwich ELISA: coated GPC3 polyclonal antibody, GPC3 protein at varied concentration, GN1-Luc fixed at 0.2 μg/mL, luminescence; the value is a GPC3 concentration

Sequence of UniProt P51654 (P51654 25-559 limits assumed): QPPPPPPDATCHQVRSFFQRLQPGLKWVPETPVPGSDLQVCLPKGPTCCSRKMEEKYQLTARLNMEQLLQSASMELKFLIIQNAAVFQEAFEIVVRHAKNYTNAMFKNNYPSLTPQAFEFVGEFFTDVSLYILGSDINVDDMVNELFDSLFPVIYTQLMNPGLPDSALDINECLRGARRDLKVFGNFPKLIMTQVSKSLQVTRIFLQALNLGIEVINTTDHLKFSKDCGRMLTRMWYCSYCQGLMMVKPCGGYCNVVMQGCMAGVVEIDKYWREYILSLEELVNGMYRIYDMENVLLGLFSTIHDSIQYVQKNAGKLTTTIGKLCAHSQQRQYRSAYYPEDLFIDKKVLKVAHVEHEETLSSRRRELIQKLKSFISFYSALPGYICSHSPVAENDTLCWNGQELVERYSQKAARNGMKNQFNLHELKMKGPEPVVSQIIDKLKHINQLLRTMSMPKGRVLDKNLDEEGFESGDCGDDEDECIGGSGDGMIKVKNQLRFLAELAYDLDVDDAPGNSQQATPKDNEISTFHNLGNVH

B1: 融合蛋白GN1-Luc (fusion of nanobody GN1 and Nano-luciferase) (protein, part only; not given: junction residues and His tag, part only)
chain, part: QVQLVESGGGLVQAGGSLRLSCAASGRTFVGSTMGWFRQAPGKEREFVARMSWLGRSTYYADSVKGRFTISRDNAKNTVYLQMNSLKPEDTAVYYCALALGYIDLARPDAVDAWGQGTLVTVSS
  EC20: 0.0519 µg/mL
  EC80: 0.157 µg/mL
